Where no end group is shown, it is not given here. The star is where a group is joined. Biotin = O=C1N[C@H]2[C@H](CS[C@H]2CCCCC(=O)*)N1; Ahx = NCCCCCC(=O)O
T1: 118-132aa
T1 peptide: {Biotin-Ahx}-VDPDNEAYEMPSEEG

T2: 10-24aa
T2 construct: also called alpha-synuclein peptide 10-24
T2 peptide: {Biotin-Ahx}-KAKEGVVAAAEKTKQ

T3: 82-96aa
T3 construct: also called alpha-synuclein peptide 82-96
T3 peptide: {Biotin-Ahx}-VEGAGSIAAATGFVK

T4: 1-15aa
T4 construct: also called alpha-synuclein peptide 1-15
T4 peptide: {Biotin-Ahx}-MDVFMKGLSKAKEGV

T5: 91-105aa
T5 peptide: {Biotin-Ahx}-ATGFVKKDQLGKNEE

T6: 1-14aa
T6 construct: also called alpha-synuclein peptide 1-14
T6 peptide: MDVFMKGLSKAKEG-biotin

T7: 46-60aa
T7 construct: also called alpha-synuclein peptide 46-60
T7 peptide: {Biotin-Ahx}-EGVVHGVATVAEKTK

T8: 127-140aa
T8 peptide: {Biotin-Ahx}-MPSEEGYQDYEPEA


How the values were obtained:
alpha-synuclein fibrils [1] = target: T9, alpha-synuclein fibrils (UniProt P37840 1-140); experiment: SPR, captured bAb; head says nM, kd/ka gives M
Protocol: (§1) Any non-covalently bound antibodies were removed by three successive regenerations of 10 mM Glycine pH 1.7 (GE Healthcare, 28-9950-84). Immobilization levels were evaluated following ethanolamine capping (Bound) and finally following regeneration (Final). Non-covalent immobilization of alpha-synuclein biparatopic antibodies on flow cell 2 of channels 1-8 was performed at a final concentration of 5 μg/mL, diluted in 10 mM sodium acetate pH 5.5 (GE Healthcare, BR-1003-52). Non-covalent immobilization of an isotype control antibody on flow cell 1 of channels 1-8 was performed at a final concentration of 5 μg/mL, diluted in 10 mM sodium acetate pH 5.5 (GE Healthcare, BR-1003-52).
(§2) Binding affinity of alpha-synuclein biparatopic antibodies to monomeric or fibrillar alpha-synuclein species was performed using a single-cycle kinetics method. The instrument was primed with 1×HBS-P+ buffer (10× stock from GE Healthcare, BR-1003-52 diluted in Milli-Q water). Injections of monomeric alpha-synuclein (Boston Biochem, SP-485), increasing in concentration from 0.62-50 nM prepared from serial 2-fold dilutions, were performed with contact times of 300 sec/injection at a flow rate of 30 μL/min. A dissociation phase of 900 sec followed the final 50 nM injection. Regeneration of the sensor to the goat anti-human antibody layer was achieved using 3 regenerations of 10 mM Glycine pH 1.7. […] Regeneration of the sensor to the goat anti-mouse antibody layer was achieved using 3 regenerations of 10 mM Glycine pH 1.7. Results obtained from single-cycle kinetics were evaluated by Biacore 8K evaluation software with 1:1 binding homogenous Langmuir model with a preceeding buffer injection as a blank subtraction. The following kinetic parameters were obtained: on-rate (ka), off-rate (kd), affinity constant (KD, ratio of kd by ka), maximum response (Rmax), and goodness of fit (Chi2).
(§3) Kinetic constants were determined from 1:1 homogenous binding models for all cases.

[2] = target: T10, monomeric alpha-synuclein (UniProt P37840 1-140); experiment: SPR, captured bAb; head says nM, kd/ka gives M
Protocol: as §1, §2, §3

alpha-synuclein fibrils [3] = target: T9, alpha-synuclein fibrils; experiment: SPR, captured bAb
Protocol: as §1, §2, §3

[4] = target: T10, monomeric alpha-synuclein; experiment: SPR, captured bAb
Protocol: as §1, §2, §3

118-132aa = target: T1, 118-132aa; experiment: indirect ELISA on biotinylated 15-mer peptide
Protocol: (§4) Serum-free supernatants were harvested from stable hybridomas. The supernatants containing antibodies of interest were then screened by an indirect ELISA assay to determine epitopes. Epitopes were first determined using a library of 15-mer peptides covering the entire sequence of human alpha-synuclein protein, spanning amino acids (aa) 1-140 with 9aa offset and […] overlap. […] Briefly, streptavidin-coated ELISA plates were blocked overnight at 4° C. […] Plates were washed with PBS/0.05% Tween®20 and then incubated with the hybridoma supernatants at 1/100 dilution for 1 hour at 25° C.

10-24aa = target: T2, 10-24aa; experiment: indirect ELISA on biotinylated 15-mer peptide
Protocol: as §4

82-96aa = target: T3, 82-96aa; experiment: indirect ELISA on biotinylated 15-mer peptide
Protocol: as §4

1-15aa = target: T4, 1-15aa; experiment: indirect ELISA on biotinylated 15-mer peptide
Protocol: as §4

91-105aa = target: T5, 91-105aa; experiment: indirect ELISA on biotinylated 15-mer peptide
Protocol: as §4

1-14aa = target: T6, 1-14aa; experiment: indirect ELISA on biotinylated 15-mer peptide
Protocol: as §4

46-60aa = target: T7, 46-60aa; experiment: indirect ELISA on biotinylated 15-mer peptide
Protocol: as §4

127-140aa = target: T8, 127-140aa; experiment: indirect ELISA on biotinylated 15-mer peptide, supernatant 1/100
Protocol: as §4

Row | Binder | Kd (alpha-synuclein fibrils [1]) | Kd [2] | koff (alpha-synuclein fibrils [3]) | kon (alpha-synuclein fibrils [3]) | koff [4] | kon [4] | binding result (118-132aa) | binding result (10-24aa) | binding result (82-96aa) | binding result (1-15aa) | binding result (91-105aa) | binding result (1-14aa) | binding result (46-60aa) | binding result (127-140aa)
1 | ACI-27D8_4317A4 (bispecific antibody, V domains shown, biparatopic; Arm A ACI-8033-27D8-Ab1, Arm B ACI-7088-4317A4-Ab1; engineered constant domains not specified) VH 1: EVQLVESGGGLVQPKGSLKLSCAASGFTFNTYAMNWVRQAPGKGLEWVARIRSKSNNFATYYADSVKDRFTISRDESESMLYLQMNNLKAEDTAMYYCVRSFDYWGQGTTLTVSS VL 1: DIKMTQSPSSMYASLGERVTITCKASQDINSYLSWFQQKPGKSPKTLIYRAKRLVDGVPSRFSGSGSGQDYSLTISSLEYEDMGIYYCLQYDEFPFTFGSGTKLEIK VH 2: EVQLQQSGAELVRPGASVKLSCTASGFNIKDDYMHWVKQRPEQGLEWIGWIDPENGDTEYASKFQGKATMTADTSSNTAYLQLSSLTSEDTAVYYCKTWGTTQALFPYWGQGTLVTVSA VL 2: DIVMTQSQKFMYTSVGDRVSITCKASQNVGNAVGWYQQKAGQSPKLLIHSASNRYTGVPDRFTGTGSGTDFTLTINNMQSEDLADYFCQQYRSYPLTFGAGTKLELK | 0.887 nM | 3.57 nM | 5.8e-05 s⁻¹ | 65400 M⁻¹ s⁻¹ | 0.0283 s⁻¹ | 7.94e+06 M⁻¹ s⁻¹ | – | – | – | – | – | – | – | –
2 | ACI-27D8_4301D5 (bispecific antibody, V domains shown, biparatopic; Arm A ACI-8033-27D8-Ab1, Arm B ACI-7088-4301D5-Ab2; engineered constant domains not specified) VH 1: EVQLVESGGGLVQPKGSLKLSCAASGFTFNTYAMNWVRQAPGKGLEWVARIRSKSNNFATYYADSVKDRFTISRDESESMLYLQMNNLKAEDTAMYYCVRSFDYWGQGTTLTVSS VL 1: DIKMTQSPSSMYASLGERVTITCKASQDINSYLSWFQQKPGKSPKTLIYRAKRLVDGVPSRFSGSGSGQDYSLTISSLEYEDMGIYYCLQYDEFPFTFGSGTKLEIK VH 2: QVQLQQSGPELVRPGASVKISCKASGYRFTSYYIHWVKQRPGQGLEWIGWIYPGSDNTKHNDKFKGKATLTADTSSSTAYMQLSSLTSEDSAVYFCARDYDVGFGYWGQGTLVTVSS VL 2: not shown | 16.7 nM | 107 nM | 0.000219 s⁻¹ | 13100 M⁻¹ s⁻¹ | 0.147 s⁻¹ | 1.37e+06 M⁻¹ s⁻¹ | – | – | – | – | – | – | – | –
3 | ACI-7079-2602G4-Ab4 (antibody, V domains shown, mouse hybridoma mAb; VH/VL only; also called 2602G4H1) VH: EVQLVESGGGLVQPKGSLKLSCAASGFTFKTYAMHWVRQAPGKGLEWVARIRSKGSDYATYYADSVKDRFTISRDDSQSMLYLQMNNLKTEDTAMYFCVRGGADSWFAYWGQGTLVTVST VL: QIVLTQSPAIMSASPGERITMTCTASSSVSYMHWYQQKSGTSPKRWIYDTSKLASGVPARFSGSGSGASYTLTISSMEAEDAATYYCQQWNRNPPTFGGGTQLAIK | – | – | – | – | – | – | no binding (tested: supernatant 1/100) | no binding (tested: supernatant 1/100) | no binding (tested: supernatant 1/100) | no binding (tested: supernatant 1/100) | no binding (tested: supernatant 1/100) | no binding (tested: supernatant 1/100) | no binding (tested: supernatant 1/100) | binds
4 | ACI-1101C8_5A12 (bispecific antibody, V domains shown, biparatopic; Arm A ACI-7067-1101C8-Ab2, Arm B ACI-8033-5A12-Ab1; engineered constant domains not specified) VH 1: EVQLVESGGGLVQPKGSLKLSCAASGFSFNIYAMNWVRQAPGKGLEWVARIRSKSNNYATYYADSVKDRFTISRADSESMLYLQMNNLKTEDTAMYYCVRVGLRFYAMDYWGQGTSVTVSS VL 1: DVLMTQTPLSLPVSLGDQASISCRSSQSIVHSNGNTYLEWYLQKPGQSPKLLIYKVSNRFSGVPDRFSGSGSGTDFTLKISRVEAEDLGVYYCFQGSQGPLTFGAGTKLELK VH 2: QVHLKQSGADLVRPGASVKLSCKASGYTFTDYYINWVKQRPGQGLEWIARIYPGSGNTYYNEKFKGRATLSAEKSSTTAYMQLSSLTSEDSAVYFCVVGYYGAWGQGTTLTVSS VL 2: DVVMTQTPLSLPVSLGDQASISCRSSQSLVHSNGKTHLHWYLQKPGQSPKLLIYKVSNRFSGVPDRFSGSGSGTDFTLKISRVEAEDLGVYFCSQSTHVPWTFGGGTKLEIK | 1.31 nM | 3.82 nM | 6.13e-05 s⁻¹ | 46700 M⁻¹ s⁻¹ | 0.0042 s⁻¹ | 1.1e+06 M⁻¹ s⁻¹ | – | – | – | – | – | – | – | –
5 | ACI-1101C8_4317A4 (bispecific antibody, V domains shown, biparatopic; Arm A ACI-7067-1101C8-Ab2, Arm B ACI-7088-4317A4-Ab1; engineered constant domains not specified) VH 1: EVQLVESGGGLVQPKGSLKLSCAASGFSFNIYAMNWVRQAPGKGLEWVARIRSKSNNYATYYADSVKDRFTISRADSESMLYLQMNNLKTEDTAMYYCVRVGLRFYAMDYWGQGTSVTVSS VL 1: DVLMTQTPLSLPVSLGDQASISCRSSQSIVHSNGNTYLEWYLQKPGQSPKLLIYKVSNRFSGVPDRFSGSGSGTDFTLKISRVEAEDLGVYYCFQGSQGPLTFGAGTKLELK VH 2: EVQLQQSGAELVRPGASVKLSCTASGFNIKDDYMHWVKQRPEQGLEWIGWIDPENGDTEYASKFQGKATMTADTSSNTAYLQLSSLTSEDTAVYYCKTWGTTQALFPYWGQGTLVTVSA VL 2: DIVMTQSQKFMYTSVGDRVSITCKASQNVGNAVGWYQQKAGQSPKLLIHSASNRYTGVPDRFTGTGSGTDFTLTINNMQSEDLADYFCQQYRSYPLTFGAGTKLELK | 0.433 nM | 0.671 nM | 3e-05 s⁻¹ | 69300 M⁻¹ s⁻¹ | 0.00158 s⁻¹ | 2.35e+06 M⁻¹ s⁻¹ | – | – | – | – | – | – | – | –
6 | ACI-1101C8_4301E12 (bispecific antibody, V domains shown, biparatopic; Arm A ACI-7067-1101C8-Ab2, Arm B ACI-7088-4301E12-Ab2; engineered constant domains not specified) VH 1: EVQLVESGGGLVQPKGSLKLSCAASGFSFNIYAMNWVRQAPGKGLEWVARIRSKSNNYATYYADSVKDRFTISRADSESMLYLQMNNLKTEDTAMYYCVRVGLRFYAMDYWGQGTSVTVSS VL 1: DVLMTQTPLSLPVSLGDQASISCRSSQSIVHSNGNTYLEWYLQKPGQSPKLLIYKVSNRFSGVPDRFSGSGSGTDFTLKISRVEAEDLGVYYCFQGSQGPLTFGAGTKLELK VH 2: DVQLQESGPGLVKPSQSLSLTCSVTGYSITSGYYWNWIRQFPGNKLEWMGYISDDGSKNYNPSLKNRISITRDTSKNQLFMKLNSVTTEDTATYYCARGDSRLGQGTLVTVSA VL 2: not shown | 0.0215 nM | 1.98 nM | 9.65e-07 s⁻¹ | 44900 M⁻¹ s⁻¹ | 0.000444 s⁻¹ | 224000 M⁻¹ s⁻¹ | – | – | – | – | – | – | – | –
7 | ACI-7079-2501D10-Ab1 (antibody, V domains shown, mouse hybridoma mAb; VH/VL only; also called 2501D10C3) VH: EVQLVESGGGLVQPKGSLKVSCAASGFTFKTYAMHWVRQAPGKGLEWVARIRSENSNFAKYYADSVKDRFTISRDDSQSMLYLQMNNLKTEDTAMYYCVRGYNGSSLDYWGQGTTLTVSS VL: QIVLTQSPAIMSAFPGERVTMTCSASSSVNYMHWYQQKSGTSPKRWIYDTSKLASGVPARFSGGGSGTSYSLTISNMEAEDAATYYCQQWRSNPPTFGGGTKLEIK | – | – | – | – | – | – | no binding (tested: supernatant 1/100) | no binding (tested: supernatant 1/100) | no binding (tested: supernatant 1/100) | no binding (tested: supernatant 1/100) | no binding (tested: supernatant 1/100) | no binding (tested: supernatant 1/100) | no binding (tested: supernatant 1/100) | binds
8 | ACI-7079-2507B3-Ab1 (antibody, V domains shown, mouse hybridoma mAb; VH/VL only; also called 2507B3G8) VH: EVQLVESGGGLVQPKGSLKVSCAASGFTFKTYAMHWVRQAPGKGLEWVARIRSENSNFAKYYADSVKDRFTISRDDSQSMLYLQMHTLKTEDTAIYYCVRGYNGSSLDYWGQGTTLTVSS VL: QIVLTQSPAIMSAFPGERVTMTCSASSSVNYMHWYQQKSGTSPKRWIYDTSKLASGVPARFSGGGSGTSYSLTISNMEAEDAATYYCQQWRSNPPTFGGGTKLEIK | – | – | – | – | – | – | no binding (tested: supernatant 1/100) | no binding (tested: supernatant 1/100) | no binding (tested: supernatant 1/100) | no binding (tested: supernatant 1/100) | no binding (tested: supernatant 1/100) | no binding (tested: supernatant 1/100) | no binding (tested: supernatant 1/100) | binds

Reference: patent US20250340623A1 (AC IMMUNE, published 2025)
